From patent publication US20040009486A1, “Compositions and methods utilizing DNA polymerases” (priority 1999, published 2004)
Where two headings read alike, the source gives them in different places.

System: rhodamine labeled-ddNTP and primer:template (pBluescript II)
Test: Steady-state kinetics for rhodamine labeled ddNTPs and primer:template
Type: biochemical
Details: 60° C.
Description: Km and Vmax values for rhodamine labeled-ddNTP incorporation were measured by incubating 50 nM primer: template with limiting amounts of polymerase (0.1 units or 5 nM) and varying concentrations of rhodamine labeled-ddNTP ranging from 0.1 nM to 500 nM. Samples were incubated at 60° C. for 10 minutes. The reactions were then quenched with ice-cold 0.2 M EDTA (final concentration). Unincorporated rhodamine labeled ddNTPs were removed by purifying the extended primer:templates on CENTRI-SEP spin columns. Reactions were then dried, and the pellets dissolved in 3:1 formamide:EDTA/blue dextran and analyzed by 6% denaturing PAGE on an ABI 377 sequencer. All peak area quantitations were performed using 3.1.2 GeneScan software and Km and Vmax values were calculated using Lineweaver-Burk plots.
Km and Vmax values for primer:template were measured with limiting amounts of enzyme (0.1 units or 5 nM) in the presence of 100 nM of R110-ddGTP and varying concentrations of primer:template (pBL31G:pBluescript II) ranging from 0.5 to 100 nM. Samples were incubated for 10 minutes at 60° C. The reactions were then quenched, purified from unincorporated rhodamine labeled-ddNTPs, and analyzed as described above.
Km and Vmax values for rhodamine-ddNTP incorporation were measured as described Patel, P. H. et al. (2001). J. Biol. Chem. 276, 5044-51 by incubating 50 nM primer:template with limiting amounts of DNA polymerase (0.1 units, 5 nM) and varying concentrations of rhodamine labeled-ddNTP (0.1 nM to 500 nM). All single nucleotide incorporations with R6G-ddATP and TAMRA-ddATP employed pBL34A:pBluescript II, while reactions with TAMRA-ddCTP were performed with pBL25C:pBluescript II. The 10× reaction buffer used for JDF-3 DNA polymerase contained 200 mM Tris-HCl (pH 8.8), 100 mM KCl, 100 mM (NH4)2SO4, and 20 mM MgSO4, while the 10× reaction buffer employed with the Taq F667Y mutant consisted of 260 mM Tris-HCl (pH 9.5) and 65 mM MgCl2. Samples were incubated at 60° C. for 10 minutes, and the reactions were quenched with ice-cold 0.2 M EDTA (final concentration). Unincorporated rhodamine-ddNTPs were removed with CENTRI-SEP spin columns according to the manufacturer's manual. Reactions were dried, and the pellets were dissolved in 3:1 formamide:EDTA/blue dextran and analyzed by 6% denaturing PAGE on an ABI 377 sequencer. Peak area quantitations were performed using 3.1.2 GeneScan® software and Km and Vmax values were calculated using Lineweaver-Burk plots.
Km and Vmax values for primer:template were measured with limiting amounts of enzyme (0.1 units, 5 nM) in the presence of 100 nM dye-ddNTP and varying concentrations of primer:template (0.5-100 nM). Single nucleotide incorporations with R110-ddGTP employed pBL31G:pBluescript II, while reactions with ROX-ddCTP were carried out with pBL25C:pBluescript II. Samples were incubated and analyzed as described above.

Taq F667Y: ThermoSequenase, Taq F667Y mutant DNA polymerase from Amersham Pharmacia Biotech
Vmax(fmol/min) TAMRA-ddCTP (pBL25C:pBluescript): 2.3 fmol/min
Km (pBL25C:pBluescript, read-out: Km(nM) TAMRA-ddCTP): 0.3 nM
Vmax(fmol/min) Primer:template (pBL31G:pBluescript, 100 nM R110-ddGTP): 7.4 fmol/min
Km (pBL31G:pBluescript, 100 nM R110-ddGTP, read-out: Km(nM) Primer:template): 8 nM
Vmax(fmol/min) R6G-ddATP (pBL34A:pBluescript): 9 fmol/min
Vmax(fmol/min) TAMRA-ddATP (pBL34A:pBluescript): 1.9 fmol/min
Km (pBL34A:pBluescript, read-out: Km(nM) R6G-ddATP): 0.35 nM
Km (pBL34A:pBluescript, read-out: Km(nM) TAMRA-ddATP): 0.6 nM
